For assay [1], the target named is GST-tagged Lcl (recombinant full length Lcl, 18 repeats) (Legionella pneumophila). Kind of assay: SPR; Biacore X100; […] (100 nM) […]. (In general: In SPR one partner is held on a chip, and binding of the other changes the refractive index at the surface.)
The target in assay [2] is His-tagged full length Lcl (Legionella collagen-like protein) with 18 repeats (Legionella pneumophila serogroup 1, strain LU1536). The assay is described as follows: SEC; […], PBS, 0.5 ml/min; […]. For orientation: SEC sorts molecules by how far they enter the pores of the column.

By Kd is commonly meant a measure of binding affinity in units of concentration. Broadly, the stoichiometry N is a count of units in the complex or per binding partner.

For the substance “His-tagged Lcl lacking the C-terminal domain (Lcl[change]) (domain or fragment)”, the Kd in assay [1] amounted to 123 nM.
“His-tagged full length Lcl (Legionella collagen-like protein) with 18 repeats (natural protein)” showed a stoichiometry N in assay [2] of 3. Besides, the Kd in assay [1] came out at 28.7 nM.
On to “His-tagged Lcl lacking the collagenous repeat domain (Lcl[change]) (domain or fragment)”, for which, in assay [1], the Kd stood at 1040 nM.

(Values after PMC6460258.)
